Laboratory results reported in the RNAGym collection of RNA variant scans (doi:10.1073/pnas.2313332121).
Fewer inactive variants are shown than the library holds.

B1: TPR 5TU (parent)
chain: GGAUCUUCUCGAUCUAACAAAAAAGACAAAUCUGCCACAAAGCUUGAGAGCAUCUUCGGAUGCAGAGGCGGCAGCCUUCGGUGGCGCGAUAGCGCCAACGUUCUCAACUAUGACACGCAAAACGCGUGCUCCGUUGAAUGGAGUUUAUCAUG

Variants of: B1
Assay: polymerase ribozyme fitness, log enrichment relative to wild type (log ratio); higher = more active; in vitro selection for triplet polymerase activity
Summary of the method: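 Mutant libraries of both subunits of a heterodimeric triplet polymerase ribozyme were PCR-built, transcribed, and selected once in triplicate, with frozen incubation at −7 °C and capture of gel-excised extended constructs on streptavidin beads before RT-PCR. Illumina sequencing of input and output libraries was filtered to genotypes with ≥10 input reads and ≥1 read per output. Fitness is the logarithm of genotype enrichment over wild-type enrichment, using inverse-variance-weighted replicate averages. The logarithm is base 2.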

Variant | polymerase ribozyme fitness (log ratio)
C38U C85U U146G | -0.571
A40U U82A C95G | -1.43
C38U A66G G92U C108A G136U | ≤ -4.2
C38G G68C C85G G126A U139G G140A C149G | ≤ -4.2
A40U G70C C79G A106G U135C U145G A150C | ≤ -4.2
A39G U55C U56A C116U U139G U144G | -2.27
C38U C85U A107U C125G A147C | ≤ -4.2
C38U G50A | -2.15
A40U A47C C51U U82C C118G | -2.44
A40C U55G G59C C75A U82G C96G U111G U148A A150C | ≤ -4.2
A40C C85G A106G G117C | -1.29
A39G A115C | -3.17
A40U G50C C57U U82A | -2.79
A40C C51U G84A | -0.15
C38G C85G C105U A121U G124A | -2.25
A40C C57U | 0.521
A39U A40U C54U G84C C85A G92C G128A | ≤ -4.2
A40C A60U G70A C103A A107G | ≤ -4.2
A39G G42C A64U G84C C85U C103G C108U G117C A147G | ≤ -4.2
A40C U55G C63U C93U | -0.65
A39C G80A A97U G126U U144A | ≤ -4.2

Variant | polymerase ribozyme fitness (log ratio)
C38U G94A | -0.383
A40U U56A | -0.0589
C38U C95G | -1.3
C38G C57A A115C U144G | -1.02
C38G C96A C114U | -2.91
A39C C54G G58C G117U G124U U134C | ≤ -4.2
A39G C103G U144A | ≤ -4.2
C38U C105G G141U | -1.54
A39C C93U | -3.4
A39U G62A | -2.58
A39G A41G A73G G86C G92U | ≤ -4.2
C38U G70A | -2.9
A41C C43A A60G | ≤ -4.2
A40C G67C G71C A98G C103A C105G | ≤ -4.2
C38U A47U C54A A73G U78A A91U C114A A115U C116U G136C U146G | ≤ -4.2
A39C G81A G94U A106G A110C G140U | -4.04
A39C C57G A89U A97G | -3.41
A41C C43U C125U | ≤ -4.2
C38G U55A C96A A150G | -2.63
C38U C76U C85G C96A C103A C114U C132U | -4.19
A40C U109C C116U C131U A147U | -2.36

Variant | polymerase ribozyme fitness (log ratio)
A40C C93A G143A | -3.22
A39U C43U U61A U135G G136A | ≤ -4.2
A39U U55G G58U U78G C85U U90C C105A G136U A142C | ≤ -4.2
A39C G48C G88U A97G U144G | ≤ -4.2
A40C U77C C116A C125U | ≤ -4.2
C38U A39C C95U | -2.34
A39G U109C U144A | -3.59
A40C G59A G71U G94C U127C | ≤ -4.2
C38U A49C A66G A138U U144C | ≤ -4.2
A40C C96U A150G | -1.3
C38U G84U A91U | ≤ -4.2
C38U A120U A142U | -0.329
C38G U44A G65C | ≤ -4.2
A40C C75A C114G | ≤ -4.2
A39G A49U U55A U56A A91U | ≤ -4.2
A40G C85G A89G | ≤ -4.2
C38U G65C G70U C85G U111G A115U U127G G140C U146G | ≤ -4.2
A40C A52C G81A G83A C93G | ≤ -4.2
A40C C87U G117C | -0.313
A40C C76U | 0.0931
A39U C54U C87A C99A G133U | ≤ -4.2

Variant | polymerase ribozyme fitness (log ratio)
C38U G70A C95A C99U A107U | ≤ -4.2
A39U U102C | -4.01
C38U G71A G81A G83U C93A | ≤ -4.2
A40G U90A | ≤ -4.2
A39G G83A G117U A120C G152U | -4.11
C38U G84A U139A | ≤ -4.2
A40U A89C | -0.129
A39G A41C | -1.44
A39U G80A C123G | -2.65
A39U A91U | ≤ -4.2
A40C U44A U102C U139A A142G A147C U148A A150G | ≤ -4.2
A39C A64G C75G C85U G124A | ≤ -4.2
C38U U53A | -1.72
A39U G141U | -1.56
C38U C95A C103U G143A | -3.18
A40G A41U U53A C123A C125U U134G | -3.73
A40U G92C A147C | -0.761
A40C U55G C85U | 0.238
A41C C96A U146A | -0.97
C38U G48A A60C C72G C96A C99U C114G U139G U148G | ≤ -4.2
